# Target: SUFU (UniProt Q9UMX1)
# Assay: co-immunoprecipitation (assumed)
# Conditions: reference: GLI1-WT; sites S201,S204,S243
substance,measurement,value
GLI1 (from UniProt P08151) GLI1-S201/204/243A,binding against the reference,weaker
